# Laboratory results reported in US20080194019.
# Legend:
# FLAG-tagged tuberin = FLAG-tagged tuberin (UniProt P49815)
# [1] = tested on: MBP-AMPKa (1-312) bacterial fusion protein
# Sequence of FLAG-tagged tuberin (P49815 whole entry, the tested form may be a part): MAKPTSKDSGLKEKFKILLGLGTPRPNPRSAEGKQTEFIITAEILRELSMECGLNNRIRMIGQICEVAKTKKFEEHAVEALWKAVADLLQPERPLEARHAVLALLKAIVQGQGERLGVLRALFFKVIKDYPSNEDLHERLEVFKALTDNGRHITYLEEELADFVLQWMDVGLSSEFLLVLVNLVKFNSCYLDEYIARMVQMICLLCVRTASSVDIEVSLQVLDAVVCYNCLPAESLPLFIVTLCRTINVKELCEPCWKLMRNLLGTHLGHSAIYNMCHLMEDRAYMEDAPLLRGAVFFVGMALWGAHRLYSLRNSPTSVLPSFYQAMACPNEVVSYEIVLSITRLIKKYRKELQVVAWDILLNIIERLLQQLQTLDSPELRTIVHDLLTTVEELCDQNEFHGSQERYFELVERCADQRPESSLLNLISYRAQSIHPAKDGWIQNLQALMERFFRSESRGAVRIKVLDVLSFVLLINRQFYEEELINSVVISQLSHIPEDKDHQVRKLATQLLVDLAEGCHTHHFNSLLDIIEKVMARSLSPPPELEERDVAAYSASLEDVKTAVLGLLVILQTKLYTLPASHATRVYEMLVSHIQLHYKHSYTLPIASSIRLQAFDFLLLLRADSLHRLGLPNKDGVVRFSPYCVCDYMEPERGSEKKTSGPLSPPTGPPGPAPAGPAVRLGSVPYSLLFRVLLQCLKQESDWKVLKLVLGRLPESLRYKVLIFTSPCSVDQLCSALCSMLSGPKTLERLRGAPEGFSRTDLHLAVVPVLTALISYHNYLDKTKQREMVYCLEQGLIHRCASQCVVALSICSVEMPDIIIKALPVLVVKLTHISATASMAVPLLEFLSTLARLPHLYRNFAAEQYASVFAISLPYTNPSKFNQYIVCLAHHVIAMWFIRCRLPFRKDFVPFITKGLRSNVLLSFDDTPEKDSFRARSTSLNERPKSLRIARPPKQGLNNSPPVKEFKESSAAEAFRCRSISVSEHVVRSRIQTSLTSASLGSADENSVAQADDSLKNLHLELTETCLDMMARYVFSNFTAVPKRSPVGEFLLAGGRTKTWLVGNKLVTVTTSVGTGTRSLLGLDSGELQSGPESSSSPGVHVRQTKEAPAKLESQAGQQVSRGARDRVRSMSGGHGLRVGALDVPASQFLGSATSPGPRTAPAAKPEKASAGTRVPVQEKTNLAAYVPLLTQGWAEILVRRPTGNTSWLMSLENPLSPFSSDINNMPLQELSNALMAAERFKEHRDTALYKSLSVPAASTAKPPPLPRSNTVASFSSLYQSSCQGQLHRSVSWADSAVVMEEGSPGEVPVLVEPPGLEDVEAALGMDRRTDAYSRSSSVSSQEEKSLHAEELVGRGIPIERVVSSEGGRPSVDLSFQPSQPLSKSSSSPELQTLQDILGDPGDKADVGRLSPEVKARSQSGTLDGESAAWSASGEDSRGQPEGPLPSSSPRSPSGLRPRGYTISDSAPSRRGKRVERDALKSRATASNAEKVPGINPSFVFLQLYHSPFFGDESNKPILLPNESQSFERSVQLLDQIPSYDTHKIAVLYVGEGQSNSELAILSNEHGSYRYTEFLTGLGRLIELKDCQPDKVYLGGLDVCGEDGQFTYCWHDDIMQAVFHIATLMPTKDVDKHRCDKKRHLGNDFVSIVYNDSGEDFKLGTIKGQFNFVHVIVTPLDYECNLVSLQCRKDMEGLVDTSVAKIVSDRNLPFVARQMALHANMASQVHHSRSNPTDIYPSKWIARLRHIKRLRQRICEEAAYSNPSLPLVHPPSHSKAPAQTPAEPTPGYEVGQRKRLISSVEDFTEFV
substance,measurement,setting,value
Active recombinant AMPK (Upstate Biotechnology),in vitro phosphorylation of tuberin; mobility shift on low percentage SDS-PAGE,FLAG-tagged tuberin,"when tuberin was stoichiometrically phosphorylated by AMPK, it underwent a mobility shift"
Active recombinant Akt (Upstate Biotechnology),in vitro phosphorylation of tuberin; mobility shift on low percentage SDS-PAGE,FLAG-tagged tuberin,"This mobility shift in tuberin was not observed when tuberin was phosphorylated by active recombinant Akt, even at levels of tuberin phosphorylation comparable to those induced by AMPK"
"Kinase-inactive LKB1 (K78I) coexpressed with STRAD, Flag immunoprecipitate",AMPK kinase activity towards the SAMS peptide after in vitro kinase reaction with LKB1,[1],Kinase-inactive LKB1 alone or coexpressed with STRAD was unable to activate AMPK
MBP-AMPKa (1-312) bacterial fusion protein,phosphorylation of the SAMS peptide by unphosphorylated MBP-AMPK,SAMS peptide,bacterial MBP-AMPK is inactive towards the peptide
same,in vitro phosphorylation of FLAG-tagged tuberin by recombinant AMPK pre-activated with wild-type LKB1,FLAG-tagged tuberin,AMPK activated by wild-type LKB1 directly phosphorylated tuberin in vitro
